Test results reported in patent publication US20250188151A1, “C-JUN ANTAGONIST PEPTIDES” (The University of Bath, priority 2022, published 2025).

Assays:
[1] = molecular target: T1, cJun bZIP (human, UniProt P05412 252-308, limits assumed); test: cell-based or functional assay
T1 chain: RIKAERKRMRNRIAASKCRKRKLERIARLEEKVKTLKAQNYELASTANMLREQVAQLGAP

[2] = molecular target: T2, cJun bZIP/TRE DNA interaction (transcriptional block of TRE-mDHFR) (Homo sapiens, UniProt P05412, S292Y); test: Transcription Block Survival (TBS) assay: colony counting and growth competition in E. coli; assay type: cell-based
T2 construct: expressed in transfected cells; host or cells: E. coli BL21 Gold carrying pES300d-TRE-mDHFR and pES230d-cJun bZIP
Source text: Library Construction and TBS Assay: Library inserts were produced using PCR fill-in reactions from synthesised primers (Sigma) with degenerate codons at the desired positions to produce the correct residue options. The library was subcloned using SacI and AscI sites into the pET24a plasmid containing A-FosW. The primers used were cJun-Hinge-Lib-F: 5′-[…] TATGCC-3′ (SEQ ID NO: 49) and cJun-Hinge-Lib_R: 5′-[…] GTTC-3′ (SEQ ID NO: 50). The library DNA was transformed into NEB 10-beta electrocompetent E. coli cells. The following equation was utilised to determine library coverage by the number of single colonies: E=100×(1−1/n)^m where E is the percentage of the library missing, m is the number of colonies collected and n is the library size. […] Library DNA quality was assessed by sequencing both the DNA pool and a number of single colonies to show degenerate codons in the correct positions in the pool and to show a diversity of library members from single colonies. The pool of library DNA was transformed into BL21 Gold cells already containing pES300d-TRE-mDHFR and pES230d-cJun bZIP.
Selective pressure is applied by growing the bacteria in M9 minimal media with TMP (2-4 μM) alongside ampicillin, kanamycin and chloramphenicol to maintain the required plasmids, and IPTG (1 mM) to induce protein expression. The library transformants were first plated out onto selective agar plates (2 μM TMP) and grown at 37° C. for 72-96 h. Optimisation experiments (FIG. 5) indicate that 4 μM TMP is optimum for selection however a lower stringency is used initially before selection is increased in later steps. Colonies from this first round of selection were pooled and serially grown in liquid culture at starting OD600 of 0.05 and grown at 37° C. with shaking at 200 rpm until the OD600 reached 0.6. TMP concentration was 2 μM in the first liquid culture passage before it was increased to the optimum 4 μM in subsequent passages. […] At each passage step, a sample of the culture was plated on LB agar (supplemented with antibiotics to maintain plasmids) to select and sequence individual colonies, and a DNA pool was also sequenced. This allows the occurrence of library members to be monitored as winner sequences are selected for. Assay Validation experiments utilised a modified assay methodology whereby overnight cultures from glycerol stocks of the Control Strains (Table 2) were diluted to OD600=0.5 and 50 μL was plated on a selective M9 minimal medium agar plate.
Transcription block survival (TBS) is an intracellular assay that utilises cell survival as a readout. […] This enzyme is absolutely essential for survival since it is required for the production of purines needed for DNA and amino acid synthesis. […]. We produced a mDHFR gene (FIGS. 2 and 3) by rational design to introduce 15 TRE sites into the coding DNA sequence to allow a robust cJun transcriptional block whilst minimising alteration to the expressed protein (TRE-mDHFR). In particular, the resulting TRE-mDHFR construct was produced via two silent and thirteen conservative mutations. […] The accessible surface areas of all other amino acid residues were calculated using the ‘Accessible Surface Area and Accessibility Calculation for Protein’ tool (http://cib.cf.ocha.ac.jp/bitool/ASA/). […]

[3] = molecular target: T1, cJun bZIP; test: ITC, antagonist injected into cJun, one site model
[4] = molecular target: T1, cJun bZIP; test: CD thermal denaturation, peptide 5 µM and c-Jun 5 µM

B1: HingeW (peptide)
peptide: MASLEQRAEELARENEELEKEAEELVVEEDVLEEEIEQLEERNYALRKEIEDLQKQLEKLGAPHHHHHH
notes: Recombinant, capped (MAS at the N-terminus, GAP at the C-terminus) and C-terminally 6xHis-tagged, 69 amino acids; also called peptide 1
[1]
  IC50, EMSA of free TRE DNA band: 9.6 µM
  TBS assay colony numbers relative to A-FosW: 10%
  TBS assay colony numbers relative to TRE-mDHFR alone: 66%
[2]; equal numbers of TBS cells with A-FosW or HingeW, after three passages
  direct competition in liquid culture, sequence observed by DNA sequencing: only HingeW was observed
[2]; vs transcriptionally blocked cells (TRE-mDHFR + cJun bZIP)
  effect on TRE-mDHFR transcriptional block / colony numbers: restore cell survival
[3]
  Kd: 0.0144 µM
  TΔS (ITC): -9.37 kcal/mol
  ΔG (ITC): -11 kcal/mol
  ΔH (ITC): -20.4 kcal/mol
[4]
  Tm (° C.) of peptide-c-Jun heterodimer: 71.2 ° C.
